Assay results published in patent US20190071505A1 (UNIVERSITY OF NORTH TEXAS HEALTH SCIENCE CENTER, published 2019).

T1: NK cell inhibitory receptor NKRP1A (CD161) (human, UniProt Q12918 1-225)
T1 sequence (looked up): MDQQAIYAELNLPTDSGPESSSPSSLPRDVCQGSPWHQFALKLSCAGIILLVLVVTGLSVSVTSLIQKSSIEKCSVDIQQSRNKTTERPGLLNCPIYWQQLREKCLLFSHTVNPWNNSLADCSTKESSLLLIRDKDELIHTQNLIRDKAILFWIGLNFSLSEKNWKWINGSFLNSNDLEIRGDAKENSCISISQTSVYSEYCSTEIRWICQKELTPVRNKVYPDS

B1: Lectin-like transcript 1 (LLT1) (ligand)
chain: MHDSNNVEKDITPSELPANPGCLHSKEHSIKATLIWRLFFLIMFLTIIVCGMVAALSAIRANCHQEPSVCLQAACPESWIGFQRKCFYFSDDTKNWTSSQRFCDSQDADLAQVESFQELNFLLRYKGPSDHWIGLSREQGQPWKWINGTEWTRQFPILGAGECAYLNDKGASSARHYTERKWICSKSDIHV

Key:
[1] = molecular target: B1; experiment: flow cytometry on DU145 cells (endogenous LLT1), PE goat anti-mouse IgG secondary, ratio to mIgG1 isotype control; clone taken from the FIG. 2 legend
[2] = molecular target: B1; experiment: flow cytometry on 22Rv1 cells (endogenous LLT1), PE goat anti-mouse IgG secondary, ratio to mIgG1 isotype control; clone taken from the FIG. 2 legend
[3] = molecular target: T1, NK cell inhibitory receptor NKRP1A …; experiment: cell-based or functional assay

Row | MFIR (mean fluorescence intensity ratio) [1] | MFIR (mean fluorescence intensity ratio) [2] | Binder | percent of MDA-MB-436 LLT1 siRNA-transfected cells killed by NK cells, 5:1 E:T ratio (51Cr release) [3] [%] | percent of MDA-MB-436 LLT1 siRNA-transfected cells killed by NK cells, 25:1 E:T ratio (51Cr release) [3] [%] | percent of MDA-MB-436 scramble siRNA-transfected cells killed by NK cells, 5:1 E:T ratio (51Cr release) [3] [%] | percent of MDA-MB-436 scramble siRNA-transfected cells killed by NK cells, 25:1 E:T ratio (51Cr release) [3] [%]
1 | 12 | 14.4 | mouse anti-human LLT1 mAb (clone #2E5) (antibody, V domains shown, Mouse monoclonal antibody from hybridoma 2E5; It was detected with a PE-conjugated goat anti-mouse IgG secondary antibody; also called 2E5 mAb) VH: EVQLQQSGADLVKPGASVKLSCTASGFNIKDTYMHWVIQRPEQGLDWIGRIDPANGNTNYDPKFRAKATITADTSSNTAYLQLSSLTSDDTAVYYCAGMDYHFDFWGQGTTLTVSS VL: DIVMTQSPATLSVTPGDRVSLSCRASQSISDYLHWYQQKSHESPRLLIKYASQSISGIPSRFSGSGSGSDFTLSINSVEPEDVGVFYCQNGHSFPLTFGAGTKLELRR | – | – | – | –
2 | – | – | B1 | 21.8 | 63.4 | 18.9 | 42.2
